Paper PMC5859096

Key:
[1] = target: His6-BldC (Streptomyces coelicolor) (UniProt A0A0M7QSG5); experiment: fluorescence polarization; conditions: FP: 25 mM Tris pH 7.5, 150 mM NaCl, 1 nM F-DNA, 25 C, footprinting: 10 mM Tris HCl pH 7.8, 150 mM NaCl, 2 mM DTT, 1 ug poly(dI-dC), 10% glycerol (none for …)
[2] = test system: T1, His6-BldC (Streptomyces coelicolor), ORF:188ed25c; experiment: EMSA; conditions: FP: 25 mM Tris pH 7.5, 150 mM NaCl, 1 nM F-DNA, 25 C; footprinting: 10 mM Tris HCl pH 7.8, 150 mM NaCl, 2 mM DTT, 1 ug poly(dI-dC), 10% glycerol (none for …)
T1 sequence: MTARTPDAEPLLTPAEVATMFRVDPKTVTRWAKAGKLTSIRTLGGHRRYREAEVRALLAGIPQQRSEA

[3] = test system: T1, His6-BldC (Streptomyces coelicolor), ORF:188ed25c; experiment: DNase I footprinting; conditions: FP: 25 mM Tris pH 7.5, 150 mM NaCl, 1 nM F-DNA, 25 C; footprinting: 10 mM Tris HCl pH 7.8, 150 mM NaCl, 2 mM DTT, 1 ug poly(dI-dC), 10% glycerol (none for …)
[4] = test system: T1, His6-BldC (Streptomyces coelicolor), ORF:188ed25c; experiment: hydroxyl radical footprinting; conditions: FP: 25 mM Tris pH 7.5, 150 mM NaCl, 1 nM F-DNA, 25 C; footprinting: 10 mM Tris HCl pH 7.8, 150 mM NaCl, 2 mM DTT, 1 ug poly(dI-dC), 10% glycerol (none for …)
[5] = target: His6-BldC(E16R) (Streptomyces coelicolor) (UniProt A0A0M7QSG5); experiment: fluorescence polarization; conditions: FP: 25 mM Tris pH 7.5, 150 mM NaCl, 1 nM F-DNA, 25 C; footprinting: 10 mM Tris HCl pH 7.8, 150 mM NaCl, 2 mM DTT, 1 ug poly(dI-dC), 10% glycerol (none for …)
[6] = target: His6-SeMet BldC(L43M-L58M) (Streptomyces coelicolor) (UniProt A0A0M7QSG5); experiment: fluorescence polarization; conditions: FP: 25 mM Tris pH 7.5, 150 mM NaCl, 1 nM F-DNA, 25 C; footprinting: 10 mM Tris HCl pH 7.8, 150 mM NaCl, 2 mM DTT, 1 ug poly(dI-dC), 10% glycerol (none for …)
[7] = target: Tag-free BldC (Streptomyces coelicolor) (UniProt A0A0M7QSG5); experiment: fluorescence polarization; conditions: FP: 25 mM Tris pH 7.5, 150 mM NaCl, 1 nM F-DNA, 25 C; footprinting: 10 mM Tris HCl pH 7.8, 150 mM NaCl, 2 mM DTT, 1 ug poly(dI-dC), 10% glycerol (none for …)
[8] = stoichiometry 4:1, WT BldC, tag status not stated

Sequence: ATTCGGACAATTCGGACAATTCGGACAATTCGGACA (double strand) [36mer opt]
- Kd [1, 8]: 20 nM

Sequence: CGAGAGGATCATGTGAGTTCTCCTGGTTCACGGGGACAGTCACCATGAGTACTTCCAGGCTCACAGCATGTATCCATACGATAAAAGGTGCAAATGGGGGAAATTCGACCGAATTACCTCAGGTGGCGGAGCGCTCCTTGGGCCGCTCGGGTGTGCCGCGAGCCAGTACCCTGGCGGTTCAC (double strand) [smeA-sffA promoter PCR probe]
- binding [2]: binds
- binding [3]: binds
- binding [4]: binds

Sequence: GAGAACGGACACCAGGCCTCCTGGGGTGCGGGGACGGGGCCGGCTCATGGGGTTTAAGCCGGGACGAACCGTGCTTTCAAGGTCACAGTCGTCTTCGGCACCGAACGCGTCCGCCTTTAGAGAATGATCACGATCTGGTGAGTAACAATCCGAGCAATTCGGACACACTGTCGATCATTCGAAGATCGAACGGTTCCGCACTTTGTCGATACGAGGCCGAAAGTGGCCGTGTCGACAAAGTGACGGAACCTCCTCCGGACGTGCGGACCCCCTGCCCGGAACGATGAACGACGGCTGG (double strand) [whiI promoter PCR probe]
- binding [3]: binds

Sequence: TAATTCGGTCGAATTTCCCCCATTTGCACCTTTTATCGTA (double strand) [smeA-ssfA site]
- Kd [1, 8]: 60 nM

Sequence: TTCAATTCGCACAATTCGCACA / AATGTGCGAATTGTGCGAATTG [whiI opt bp 8 and 17 to C]
- Kd [1]: 115 nM

Sequence: TTCAATTCGGACAATTCGGACA / AATGTCCGAATTGTCCGAATTG [whiI opt 22mer (FP)]
- Kd [1]: 18.2 nM
- Kd ([1]; stoichiometry 2:1 (Fig. 5a)): 20 nM
- Kd [5]: 140 nM
- Kd [6]: 19.6 nM
- Kd [7]: 16.5 nM

Sequence: TTCAATTCGTACAATTCGTACA / AATGTACGAATTGTACGAATTG [whiI opt bp 8 and 17 to T]
- Kd [1]: 50 nM
